Article PMC9841416

Target: NTH-RNase E D346N D346N (Escherichia coli (K12, P21513-1 in alignment)) (UniProt P21513)
Assay: EMSA
Conditions: 25 mM bis-Tris propane pH 8.3, 100 mM KCl, 15 mM CaCl2, 0.1% (v/v) Triton X-100, 1 mM DTT, 20% (v/v) glycerol, 37 C 20 min; 1% agarose gel in 1x TBE

glnW-metU segment
Kd: 27 nM

glnW-tRNA (no flanking single-stranded regions)
Kd: 56 nM

metU-tRNA with 5' and 3' single-stranded regions
Kd: 19 nM
